In the domain aggregation screens of Martell et al. (2025):

Assay: soluble fraction after stress (log2 fold change); higher = more stays soluble; pooled small domains, quantitative proteomics
Conditions: stress: 75 degC
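Also: 20 min heating vs room temperature control held 20 min.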

Sequence	soluble fraction (log2)
HMDPLGHVIKKKRLQLGMTLRDLAAKAGVHHATIDRIETDQFKVVDPSTLVKIAEALHLDQLYLLSLN	-0.666
HMSISEFNYTEFNGLVEKGQVSEVTISGREIEGRLTSGESFKTYSPETDNSALVGDLLKNNVKINGKP	0.0159
HMLPLIEVPAVTGKYLTKAKSALKDAGLDTGDIKRVEHEEHGENYVLKQDPPAGTKVPFGTTVSLTVVAP	0.427
HMPLPLYVQIKESLRGQIFDGTYGEHERLPSENDLMSSFGVSRITVRQALSDLEKEELIFKVPGKGAFVSR	-1.5
HMDSLIEYENERSLRRLINENLSDYERTVWWLYYAGADAAHIAEQTGRSKRSAENAITRVRRKLRALITQS	-1.33
HMKVDRLVSMILILLEQQRVGAQELADRFEVSVRTIYRDMEAINQAGIPVRSTSGVGGGFEIM	-0.471
HMSVISVETAKSKALAHAGLTASKVTFIENKLEWDDGRQVYDIEFYTSDYKEYDYTIDAVSGQVLEFDY	-1.67
HMINLDGIGEKISRLRKEQGVTIRELSEYTGYSVGFLSNLETGKNSPTVESLQRVAEALRTDIIEILTK	-1.2
HMSRGTLFVDVRGAVAKPGVYELPEKSRVFQAVEAAGGLLPEALERLVNQAAELTDGQQVYIPFEGEE	0.405
HMNDRLAGMEGQRGEAATNFDQGEGKVKVGDTVWLAKQSDSTVIVEGDQIVVTGSENGLLKVRL	-0.25
HMTVKKLTINEDNSGRRIDNYLLSIFNSLPRSKIYNIIRKGEVRVNSSRIKPNYRLEQGDLVRIPPNLEFT	0.154
HMLQLKEPLKKVYERLTPVPKTAETILAELWEKGEYLDIAALHRALMELELSGYVRQSSPGYFGTSA	-0.553
HMTEELQDMESRIIEAAKRVFVRKGYEATKMSDIALEVGLGRTALHYYFRTKEMLFDAIFGRLMGV	-0.702
HMETKPTELMLEVHELRIGMFVHLDLGWMDHPFPLNRFKISTNSQIEQIKGLRLKQVKVMTALSDPTALS	-2.29
HMHKKQEVQDSIDAAEEFMRASGVPAELITSKRAYAVKAIYADAVDKGTPDEIVKKDGMIVALISQMRS	0.421
HMQEEELYPRLEEVINQHRGKGEDLIMVLHKAQNLFGYLPRRAQEMVAEGLNVSLNEVYGVITFYNFFST	0.194
HMAAMDMFVKLDALDAELTEQLKALPAEPDDARVERGLALLTDYDHRIKALLTEIFGGENDFDKVL	-3.1
HMRTNNEITSYKLKSGKKRWKFQTYLGLDDKGQKVSVTRQGFRTYNEAISEYNKLRAQGTQGYQ	-0.948
HMPTTLEGIEKYLSSGLIKGIGPHLAGKLVEAFGTRVFEVVEHQPERLRTVGGIGRTRAESITSAWRDQ	-0.146
HMTAGTTALNKLQQGMSTQQVQAALGTPSDRTVKESGVELWKYYYPYENMLLYLKFRDGHLVSFGTN	-0.594
HMKMVEIDYGKFLTMLDTGKVKSVEIENNRIAINPSSSKDKNIYITGRMDDPELVDRLKNAKVEFTKVIP	-0.0753
HMQMTTPQMVPLFTDLSVDDSASIIKDLERQAVPYQIKSDGAIIMVPKDKVTRLRMKLAESGLPK	0.488
HMEENNIVIYITGAVKKEGIYEIKENSRISDAIEAAGGLLENANIKDINLAYIIEDGVKIYIPTNEEVNK	-0.409
HMKYYIYQGVGASGELTKIAEVTDQKTYTVTGLQAKTTYRFAVSSYNGLRESTKSNIVTVTT	-0.134
HMYYIITNGKYWVIENPIRPGEYMESTKSSNAKQFTFKQAKNLLNARSKKLGWIRNGYSMVGED	-2.46
HMTQRRLQSELDSIPGVGAGTRTKLLRTLGSVDAVLRASEAELLAAGANRRQVASIQAHAAAVER	-0.0213

Sequence	soluble fraction (log2)
HMIKDSKAAYKILGVDENATNEEIKKAYRQLVINHHPDKVSHLGEDIQRAANEKLKQINAAYDEIKKQRGF	-0.0128
HMGMVEFEIGERDHSEDVSRKLFEAGLIEDASDFNQYMIEKKMDDHLQTGKYQIPKGATKDEILELIVR	0.043
HMAMSDFDALSNRISTLSQGRASAVRMKDGIVSLVLDIGGLSAEERKAMTAAIEGEGRGYPSVTQVRILET	-0.15
HMSLSPAATRSRGYPSVLLTMKAPERLVSAAGPDRRAYLVGTDPLVIELPGVKGLYKVDPDQIVFE	-0.0024
HMNETTVPDVINQNISTGKIIIEDADLEYRIQYIPSEKSSSIGTIINSIPIYGKRVKSGTIVDLKVLG	-0.248
HMEVVVPEDLDAALQQASRAQSFFSSLSYTHKKEYVAWINEAKRAETRAMRIQKTITMLESGQRGH	-2.35
HMIPDAIDPDGRFKWRAGEAVVGFGRHAGEPLKKIAIENPEFLRWILKADFSTDVKKIASDALKGYFPEK	-0.488
HMGYLNDRQRLIKDFITENQPLKVSDLVKQFPNIGLSTLKKDLQYLRGEQVLTMIGKGKGSVYVLNKK	-0.975
HMSSQWWYSAGGERKGPVDFATLRGLYVQGAIDGRTLAWREDMQGWEAVNDIPDLEPLRRAVPPEL	-0.0747
HMKGKIYFFEEGVDRVGGVERVISTLANEFSKKYKVNVISFYKTRKETFFKYNSDIDITYLSK	0.152
HMALSSQQIKDMQSWYGTKADGIWGSKSTTAAGGRDAGAAYSLYSSNKGRYSSYTDYMSYGGG	0.341
HMEDPPISQEQRQALFKMAHDHLGKDEGNKAILTLIQSHGLNSTTGMKVSTYNTIMEELVSTIQSLAA	-0.0374
HMYIKYETVLQNITERIAALRKNGTLVLDGERTLAAEFDASRGTIRKAMRQLEENGTILREGYVTRILPE	-1.95
HMNTELFTKNLFNKLEVLLGEKNWKSKTAQLLNISSDAFYKKIRNESQLNLHELLLIKDTFKISIDALLDE	-1.35
HMSHGYVEMQAKDDQVLLAALKNHPWFEKVSIDEETGLTKAILTQPIEAEELNSMLFEKGIVLSHLVKRK	0.288
HMTDLNQIGERIKGLRDALGYSPEKMASILEQKVDDYLAYEEGTKDISLSVLQRIEKEFDIDLSTLLFGT	-0.333
HMNVAVSEADAKAAALERVSGATEADIRMELELDDGYYVYEGDIIYQQKEYEFEIDAQTGKFLKWSEER	-0.121
HMSAPLKELGNDPESGKPIVVKDGRFGAYVTDGETNATLRKTDAVESLTPERAAELLAEKRAKG	0.493
HMRSFRIGGLVEQGSIARDGQSLTVRFAVTDLAHKIPVTYTGLLPDLFKEGKGVVAEGKLGPDGVFHASQV	-0.0831
HMVTFDEISQSLVRDVAARRSLSVQTLHAMVDRYNAGSSINAVANQYGIDRLKLREILIELGVHVAT	-2.4
HMIDFDEIEILSSSKIEKIENSEYLKSSIFEKDSNQYIYRLSFENRDQLKNFKKEIEDIDQIKKIDVTY	0.0545
HMIVPPAIPFRALGIFGPRDRPIVTFEDGPRLINAREGDVLDGRFILRRVGRESVDFAFVGLPPEITRRIP	-0.571
HMPPDLSEAIQKRIEGKTDEALEILRKLYNEYPESTEIITMLGRTLLDAEEYALAAFRLEQALDLGG	-0.699
HMKFINISIDKSGNLFINKKSIKFQDLKYNVVNLVDESKNLVVLNADENISHGYVISVLDVLRSIDGLKLA	-2.13
HMKELTPEQLQHNWNNLRQFIDVNFSGDRLGGLNKMYDYFEERMMFAPASGKQHYHNAFAGGYVEHVMHV	0.209
HMEKEKIKEALIGYFEAEPEEKFTVQELADKLKMNKAGQFNFVVQAVAQLEHDKVITLDDEGNFSLVRHE	0.176

Sequence	soluble fraction (log2)
HMAVGVFQKEDGYWGYRFSIIVDGKTIARRKFTDENGSKLRTKSEAVKARAAAMVAARMERVS	-3.46
HMDSINGEASISRELHGTRFDQAAAILFPEFSRSRLQAWIGAGALTLDGQTARAKDKVTQGQHLVLAAAVE	-0.54
HMPYHSEAWHKVMKSHWLTLSREEAYMHEGRTGASTINIVFQRELGREATQEEIESIYQEKSVLFNSYP	-1.52
HMSKAYLSVESNISGARVFVDGQKEGTTPLSDVLLSAGEHLILVKKQGYETYQKRVRFQKGRSMSLYVDLS	-0.0864
HMRELPKRPEIRYAAGDRVFHKAFGNGLVKQVAQTAGGARVTVDFGEGKGVKTFAGDAPMIKI	0.391
HMEVFTPSEANVAEAREILAAMATAKANGEGATVYKGRLVDIASIKQAEVIVRQSEMIQSAH	0.696
HMYFEDEELDRFVGTPAGAYTEEDVEEFRDVLLSLDIEEVPSWVRSLQLRGIDFPETLRPELYLL	-3.01
HMTMEFGEFLAKLRKERGYYQKEVAAYLNVTVATISNYEKNVHAPDLDTLVKLADFYDVSTDYLLQRT	-2.7
HMNHYIGVDRAKEIALNHANLSETDVVFTKEKLENDDGGAEYEIEFHSGRTEYDYTIDAASGNIIEYDVDY	0.324
HMKITAPLPGTITEIKVKVGDTVKNGDTVVVLEAMKMQNNIEAESNGTVTAIFVNKGDTVMEGDALMTI	-0.075
HMAEVALFVNGSDVNLRSGPGQESTRVIGSLNLGDEVRIKSQNGQWREVYVPKTRQVGWVAHWLLSEAPP	-0.535
HMVLENLKKFIDSKGISVSAFEKSIGMSNNSFRKSLNSGGHIGSDKLENILKIYPELNPVWLLQGEGEML	-0.589
HMLSDFHLNHDSIVNHTVQKKETIFSLSKKYGLSINEIIKANPGIQIDKLKRRSILIIPLRKK	-1.81
HMVNKQERTYTILRDRIHSGSFAPLERLNIDALARELGVSPIPVREALRRLEAEGWVRFTPNVGAVVSP	-0.509
HMSSSDYDVYNKAINLMLNLLKEPKSIEEVTASLNITKSQAITWINRALNEGKIIKTNRPVRYVVNN	-1.39
HMIAITVGSKVRVKAGATFSDGTKPFTEVYNTVYDVQLLSRNGKEARIGIGEQWTGWMYISDLYPADQ	-3.42
HMSDLLYAHPTEKGFQLVNVTQKVVMVILKTAAPNVYTVKGKNAIVFKEGNSWFYSENHNKKLLNIK	-3.18
HMESWNRARILEKIRELHAQGVALNNASMRRLGYRGMMEAAARPQNFGSWEAAVRAAGIDYDRV	-0.275
HMALYSEQVSEIEKALMSLPPKYQLVMLLLYAEDLKYEQIAEILDEPIGTVKTKIHRARKILKERF	-0.147
HMSHKYKLTVPETGEGTRVDKFLSSALTELSRTRLKSLIEEGQVTLGGVKLTNPSHRVKSGDELNIEIPVP	0.018
HMPSQEQSDKNAAMAFLPVIVKNALNGKGLKISDDWKAAVNTALAQYPLVNKFFNADSPEVTELVMGL	-0.0584
HMPHTDATDKQIIALILETLKDGQKHSVSEMTFPGIPREKTAQLLHQMIEEETVRIQNGVLFLPH	0.00795
HMAEPEALLAMAQRILGEEVAQSLFQGAAREQGKEGYLPDPTPAFLDALEARLSGSVGAATAHAMISQLVG	-0.15
HMNNLNDIIEIIRIYAKNYARNNPSWNHSELINRIRDKALGEAEDYNIRLSEEDLALITELSLRGL	-0.713
